# Reference: the supplement of paper PMC12636428
# System: Saccharomyces cerevisiae
# Experiment: transcriptional activation domain activity (GFP:mCherry ratio, weighted mean of sorted bins, harmonized to initial dataset scale) (arbitrary fluorescence ratio units); higher = stronger transcriptional activation
# Conditions: beta-estradiol 1 µM; induction time 4 h
# Method in brief: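 After a 1:5 dilution into SC with 1 uM beta-estradiol and 4 hours at 30 °C, yeast diploids carrying a GFP reporter and URA3-integrated barcoded tiles were sorted into 8 bins by GFP:mCherry ratio. The tiles were fused to an estradiol-inducible synthetic transcription factor. Barcodes were sequenced, tiles below 50 reads were discarded, and activation activity was taken as the read-weighted mean of bin median fluorescence, averaged across barcodes and linearly mapped onto the initial dataset scale.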
row,Sequence,transcriptional activation domain activity
1,KSNDSSAEKDTRSMVFCETEKVSYTGANFGEDAARDVHCKYLVGVYSKSQKQL,37900
2,EKEEAEKKKKEEAEEKEKEKEKKEKKGGKKKRASKKSSRKSKSKEAAGSGADE,25500
3,KDATGDDAARARGGDKGGEREKAGGKGGRRGPKEKEKGKQKAKESKGAAGFAE,55600
4,FLVAFLLMCLHSPDKSTVAMLILGVFSLLLLLFWAASLSFDGQPSKYGWLLRH,50200
5,EQEEEEEEEEAKQPKKKRAKKWFEDESSGDEDTGDRKKKKRKARAAAAAAAAA,41300
6,MPLPPGISYILKRAPSLLLPGVITYFASKYVVNYCRLTLPRWILCALVLLAKP,86300
7,RKSAATEEKEEKKEAPKAKRAKKAKEPEPEVEAEAEAAAEKVEEVKEKKKPGR,24800
8,MSWPFPFFFLLFRLFLSLFRGGCFWVQIFVFIPEYLVYSILFSFFFTVIYLFV,40400
9,ELPKKCDDKYWEHGDNYQEAIRQLPTKPSLVEFFNCLITLNRILALTLRMLYS,55200
10,IGQFRFLQRLVLVHGRWSYRRLAETISNFFYKNMIWTFSIFWYQVFCNFDITY,24600
11,INSTVHNLCELVLLPELFGFCCFSMRFFVFIDLVGTLILPATVVYLFYLIIVV,39400
12,LWFFFKGMDGMLHPPCSTWTFFFAKVNLYTWLRTFMKIVFVFMGLLHAIIIFW,60200
13,PVRGIVELPRNSFPDEVLHFTCLTIVCAAIFFLFSSFLFFFCLLHLSCYLFVP,30800
14,YLVRHRGEIFDNFQARKEQLLCPVYIRWLRLIWQILLSCCHVIFKSHPWMVFM,57700
15,MSYGKRDEDAELGLVKVDRTQVFQEARLFNSSPIQPRKCRILLTKIALLLYTG,24100
16,MYCMRYFVPLFLLPFPDSPPIFVILFLISFFLHQKPCIYCTLLLFALFSSTCF,48600
17,MAKTRLIETIHTAFCIEFIYQYLIIGYGNPLVLAQIHWSVVCLLACTLLIVFL,55500
18,FFRRALNFLFDIALVPMIVCSSYAIFEVPSNVFLKRLRPSLWLSLLMLLWGIM,69000
19,MCAASSEGASLSPASSLQRGKACLACRRRKMRCDGARPTCGQCVRGNRVDDCE,21200
20,PDDHKLLKALVFFLWVFDGLHIALICHAFYLITVTNFGNVLALLTIPRTLPIA,58400
21,PVPAAAASPVAVPQPAPEQSKPVVKEEKKPEKKVDEERKRKGTKEGQQQQQQQ,16700

row,Sequence,transcriptional activation domain activity
1,LYLCLVILFKRCIIGGFKAGPRRHDQVTLMRYWFMEKLLPPGENLQGVASILG,16200
2,LLIFVLFYYNCMKILYGIFGFIILGVLGLFGYYISSMLLWLYNVPFDYISFFF,68500
3,FSVLFSKLFVWGILPYQTVGVVIQHTCQAVFLFVNIYWTFWRNWPWVQSGFFT,80100
4,SRGICVYPFLPFAFFLGVFFSLMEFVLLGMMMVLYLYMRTVTCMFDISICLLL,48500
5,MSSMHKLVTIFTGQGRVLSFFSLCVLRGLYYYSLLLRYLYFTLLVFFLSLFPF,49100
6,SAHWILKAYYTDRRVLFGFCFGNEAFFMLIYLMEYLDGFCFYFVSFLALLAFP,57200
7,MEWLLHTVYVVAIKDTRAWGGFSPFQMSMVGYFNLKLIWLKLLIIWRFFRLWA,76000
8,HELFALYNLLYFRKLLLPRVEVIWSPRLTLCAGICELSKDPKTGKFTRIRLKL,47000
9,EIGPDGEVKKKYDPKDPMRPRRKKARRACFACQRAHLTCGDERPCQRCIKRGL,53300
10,SDSGSEGDSDSDRGRSRKRKKGKSTGKSKSKSKSKSRRNASGSDDESESGSGS,35300
11,EIVDPMQSWLPFQPEASDNVLPDENFFLDDSLFTFGDTLTPNFGPVEWYDLLA,140000
12,RLYLKGVVLTLWSLDTIHLICVCHALYWYLITNFLNAFVLEKLAWYRGWCPSH,68600
13,MMAMAFDPGFRDDEVVQFLLYELGVSSLLFCFVCFGDFVDFLDPFAFWVDLLF,48600
14,EERRRGRRRRRKGGGEGGRGRKREKEREERERKGEKKEGERKGKGEEKGREKK,20300
15,RETDAWACGVVLYALCARRLPFGEGAARVEGESGGRIGREGGAREGAAARRHW,32400
16,PNVFGLMLFELGLGFWIKTDYYYMLICLSVSSLVFRAEISLLSGLLVLQDIFL,66400
17,VLVVLCLRFFIFGIFGYILGFWMQHLLPYTPLSLSFMCLLFCLSFHLDISPSP,45600
18,MTEREPDNEQQPRKRIAVACGRCRKRKIRCSGDPGNGEPCTNCRNANAEPCQF,38700
19,IILDLLLRFSKVENVISQAVDSPPMGRLGCCAIVTGSAVAWALCTATRFRLVL,52600
20,LFFSSFLYFSLSLGAPGNYFFDVTFFFIPYPPLCIASYSLGFFFFFSFFFFFS,70900
21,AAAAAPATTTTESAPAPAAEAAKPAEEAKPAATEAAPAADATAAAPAPAPAAA,< 6570

row,Sequence,transcriptional activation domain activity
1,PPEEEAEEAVGAEKAEEAEEAEEAEEAVEEEPPKAANGRRSRAAAASAAKSSN,35500
2,MSLWISILHTTFLVGYHSIILSLSSPYHYCYLSFLFPIYPFLLGLFVFSLLSS,56600
3,MVILLLFFVFRVNFVIVLAVSIPRQASFHVIHRFTYLLRRLQDMLNTTHRYAA,40500
4,IIALLLRFYDPSSGKVLVGPDDLRNLNVRSLRSHIALVTQSPVLFSGTILDNI,42100
5,MADAVADAAANLKLEEGAAENAPKLQLDEETGEWVSKGELKKRLAKRAKKASK,14100
6,ELKKFADGVDRERKERAKSANGCCGFCGREEEALPKCGRCKETRYCSPSVRAC,33000
7,MNLSRYAVVLATQWGILIMLAMNQLCIPSFLTMFAYIPTKVLQFFHYFIVSLF,47700
8,MCCAECCLSSLVSFVSFFSRSLHSLTIRGFFLFPGTFHVILFLFFRFFIFFFH,47400
9,GFLLSYSLIRLSLTSHLLFGVFLLIQDIMLVLFSLYPTYPILLFSFLIFIGSF,35500
10,YRSRGIDEGRGKREAGRERERAERRSTKEAEKGGEGRWEGRSARRKEAGGKKG,56700
11,STTSDGAPGSEVPLKRRPGRPKGSKTKKRKIDTAPVPIAAAGTQPAASSTTAP,35700
12,EDASAGEGEEKKKRKKKKVEASSDEEGSGSDGSKRKSQSKRTKSSKKGRSDNG,40700
13,THHAFPLRLLVAIVVLLDCHSLLQIALGTCTWAISYHVRPFALTTVILCCSIT,41300
14,PENWTMDSWPLYWPQALIDTIPSLQLSIPPMDLTTLDNPLAPFAFFMFLFSWQ,53400
15,DSKDKREKFRSRMVVLKSRLLFGVCDPYGVLEEGEVYVRVSVPRMGASTLKNT,67500
16,EADGEVKTKSKKSKKQKGDAADSAEADDAKSAVPEGTDATKKKKKRKTQEPSD,30600
17,RQTEKPLRSVYCYLIWGEIFVCLVFSIICWCHLYGLFGGSFEFYFMILTLWAL,33000
18,ELKDGGGGESSPIEIADRVVVEECDMEKVALDRTLGRLWRGWRKRLRSPATPV,65100
19,ELENQSSLYYLPIHEETPFFIDLIPNGFYLETKRSADNLFGLFTDRAIENRDP,83800
20,DSSEEDSEDEKPKAVQVKAIAKASSSSDSDDSSSEDDAPSKSVVAAAKKVSPS,22200
21,ENSEDALHNSETMDLLGTLSHGNDFALEYNFDFTLLNEIDMLIGGNTNDGLSK,101000

row,Sequence,transcriptional activation domain activity
1,MCSCVIRRHPLAKPKMGSFQSIGALTCSSCSSWKMCILLFLILVWFTFRLTSL,21400
2,SWLRGYEVFKLQVSSTMIKCLRGMLCFIPVVCLGPNIVLLLGLPIQTQVKWFL,61100
3,FILYSLLLIPFPLNYILSYIFFFFFLILWGIYLAMRGFFKSWFSLWAWAGNGI,64600
4,TETELYIPEFKLDPVNGYWFPHFVKYIIVALMMGLYILIVFWTLMIFKVVYKL,43100
5,EQAEKEAAAEKATPKEAAAKEESPKEESPKEESPEKKEVKKPVKKTPTKKNAK,27100
6,SNRGSGGGGRATGAHSRRGRGSGDRGGRSSARSRSKSPGAEVAEAGEPAPAVP,17900
7,PGAAGGEKEKKKRQRTKNKKVDAAAPAEDAPAAAAEKLAKLEVAPADDDAAAK,25900
8,MDGVFGVCFLCFISVFYLCFIAFFFSILTTTLLLWLRWGAMFLSFFLSCYLFF,32700
9,GELQFCYITGMVLGNLACMEQWGNIVRVIFRAFRLALDSPVFFRKVIQAIHTQ,80700
10,MDAYFFFVFLSFLFFYIFFLLFSILLLFSFYFLCSGVHNMCFLVGVWLWSRGG,35800
11,MALNLFQKEIFLILFLLFYYFAILLFCYFIILLFCYLIFLFFLFHLSLSSLIF,26300
12,GAVAADVEDEDADDALEEPAKGKKRKSKVEEDESEAEKPAKKGRGRKSTETNG,42600
13,EKEAVVKDTASSTRAKTTRSKPKAAPAAAEPPKTATRGRGAAKLAADKPAPKT,23400
14,SHALQNRRASHASSAGSGSRRGSREETGEHHHKKHHHHKKHHHRRHSHGGGGG,54500
15,FSLFGSFGCFGSLTLLLSLVMPVVLFVMLQWVMVWIWSCCFIFRLGMLTSFDV,54500
16,SLGCLVKQAEYQVDGRSIGMDGYLFFFFFACCCFLYTSGLSFLYLFWFFFLVF,22900
17,KQYCVRPNSGRIEAGKEVEVQVLLQAMKEDPPPDARCRDKFLVQSVAVTADQE,37200
18,ICIIPFVNGFLCEPILPLVFFCSSLTLSESWFIFCIGLVVGLWLYTLVAGVCF,37300
19,TIMYGVRFVVVLLTMEIMIHFMYMVAIFHAKPDWSAYTPFQLSMLGYFNLNHI,46200
20,DTWGMEMEMEMEFLFLFLFVIFFLPCLSFFFSYFFSSNLLFFFFVFVMSFSFM,73000
